These results are taken from patent publication US20110305716A1.

In assay [1] the target is rat total IgG (Sigma-Aldrich) (rat). Nature of the assay: ELISA; rat total IgG coated on plate, 10 ng TGF-beta in PBS, 18 h 4 C, bound TGF-beta detected with TGF-beta ELISA kit. In general terms: An ELISA detects its analyte on a solid surface through an enzyme-linked reagent.
Assay [2] has the same target. Nature of the assay: ELISA; rat total IgG coated on plate, 10 ng TGF-beta in 10% glycerol in PBS, 18 h 4 C, bound TGF-beta detected with TGF-beta ELISA kit.
Assay [3] shares this target. Nature of the assay: ELISA; rat total IgG coated on plate, 10 ng TGF-beta in 0.1M Tris pH 7.4 (0 mM NaCl), 18 h 4 C, bound TGF-beta detected with TGF-beta ELISA kit.
Assay [4] has the same target. The assay can be described thus: ELISA; rat total IgG coated on plate, 10 ng TGF-beta in 10% glycerol in 0.1M Tris pH 7.4, 18 h 4 C, bound TGF-beta detected with TGF-beta ELISA kit.
Assay [5] addresses TGF-beta receptors on mink lung epithelial cells (ATCC CCL-64) (mink). Nature of the assay: cell-based or functional assay.
The target of assay [6] is Mouse IgG1 (eBioscience) (mouse). Nature of the assay: Sephadex G-50 gel filtration of the TGF-beta/IgG mixture; fractions assayed by TGF-beta ELISA. In general terms: In gel filtration, larger molecules generally elute earlier.
In assay [7] the target is Mouse IgG2a (eBioscience) (mouse). The description is as above.
The target in assay [8] is total mouse IgG (Sigma-Aldrich) (mouse). The assay can be described thus: 20 ng TGF-beta and 1 ug soluble total mouse IgG, 5 min in PBS at 42 C; Sepharose G-50 spin column; TGF-beta ELISA of eluate.
The target is the same in assay [9]. Nature of the assay: 20 ng TGF-beta and 1 ug soluble total mouse IgG, 5 min in PBS at room temperature; Sepharose G-50 spin column; TGF-beta ELISA of eluate.
The target is the same in assay [10]. The assay can be described thus: 20 ng TGF-beta and 1 ug soluble total mouse IgG, 5 min in 0.5x PBS pH 11 at room temperature; Sepharose G-50 spin column; TGF-beta ELISA of eluate.

Take “TGF-beta (Leinco Technologies, St. Louis, Mo.) (from UniProt P01137 279-390) (ligand)”: the Net Absorbance (450) (absorbance at 450) in assay [1] amounted to 0.18; in [2] it was 0; in assay [3], 1.02; in assay [4] it was 0.7.
In assay [5], “Transforming growth factor-beta 1 (Peprotech) (from UniProt P01137 279-390) (ligand)” came in with a Cell Viability (OD450/Control OD450) at 0.25 pg/mL acid-dissociated (Treated) AcTigg (OD450/Control OD450) of 0.621, a Cell Viability (OD450/Control OD450) at 2.5 pg/mL acid-dissociated (Treated) AcTigg (OD450/Control OD450) of 0.645, a Cell Viability (OD450/Control OD450) at 25 pg/mL acid-dissociated (Treated) AcTigg (OD450/Control OD450) of 0.651 and a Cell Viability (OD450/Control OD450) at 250 pg/mL acid-dissociated (Treated) AcTigg (OD450/Control OD450) of 0.651. Also, the Cell Viability (OD450/Control OD450) at 2500 pg/mL acid-dissociated (Treated) AcTigg (OD450/Control OD450) in [5] is 0.616. Moreover, the percent of TGF-beta eluting in the IgG-bound fraction in assay [6] was in the range of 40 to 50%. Also, the percent of TGF-beta eluting in the IgG-bound fraction in assay [7] was 40 to 50%. Further, in assay [8], the Net Absorbance (450) (absorbance at 450) stood at 0.117. Moreover, the Net Absorbance (450) (absorbance at 450) in assay [9] is 0.193. Moreover, the Net Absorbance (450) (absorbance at 450) in assay [10] worked out at 0.558.
Take “mouse AcTigg (TGF-beta 1 non-covalently bound to mouse IgG1), PEG-precipitated, intact (from UniProt P01137 279-390)”: in [5], the Cell Viability (OD450/Control OD450) at 0.25 pg/mL AcTigg (OD450/Control OD450) worked out at 0.965, the Cell Viability (OD450/Control OD450) at 2.5 pg/mL AcTigg (OD450/Control OD450) amounted to 0.924, the Cell Viability (OD450/Control OD450) at 25 pg/mL AcTigg (OD450/Control OD450) was found to be 0.897 and the Cell Viability (OD450/Control OD450) at 250 pg/mL AcTigg (OD450/Control OD450) came out at 0.817. The Cell Viability (OD450/Control OD450) at 2500 pg/mL AcTigg (OD450/Control OD450) in [5] stood at 0.678.
